Measurements reported in paper PMC5612765.

Columns and labels:
[1] = test system: T1, Fis (His-tagged) (Pseudomonas putida), ORF:eb421da7; assay: EMSA with competition; settings: EMSA: 24 mM Tris/HCl pH 7.5, 50 mM KCl, 10 mM MgCl2, 1 mM CaCl2, 0.1 mM EDTA, 5% glycerol, 0.05 ug/ul BSA, 0.05 ug/ul salmon sperm DNA, 20 min room …
T1 sequence: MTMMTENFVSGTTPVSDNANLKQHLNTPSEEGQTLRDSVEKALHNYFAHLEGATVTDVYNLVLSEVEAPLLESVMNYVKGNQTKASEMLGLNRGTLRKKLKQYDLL

[2] = test system: T1, Fis (His-tagged) (Pseudomonas putida), ORF:eb421da7; assay: DNase I footprinting; settings: EMSA: 24 mM Tris/HCl pH 7.5, 50 mM KCl, 10 mM MgCl2, 1 mM CaCl2, 0.1 mM EDTA, 5% glycerol, 0.05 ug/ul BSA, 0.05 ug/ul salmon sperm DNA, 20 min room …

Sequence	binding [1]	binding [2]
AGGATCCGAAACGCTTGGCTAAGGTACAAATATCAATGTGACATTACATTGCCGATTGTTTAGGATGGCATGTATAAGCTGAATAGTTTGGAGGTCAGGCAATTCCAAAAAGTTATAGACGGAATATTGACGTCAAAAACGTCAAGAGATCATCGACATAGTTCCGCCTGAAGTGGCTAGCAAGCGCCGCTCTGGCAGGGAAGTACC (double strand) [Fis-A1-Fis-A2mut fragment]	binds more weakly	–
TTGAATTCATGCAAGGGCTTTGGGTTCCAGCTTAGTCACTGTCAGTAAACAGGCGCTGGTTTGTTGGCGCATATCTGTGGCTTGTTAGTCAAAATTCATCTATAGAGTGCGGATTCTTGCCTTCTTGCATTCAATATCCGCAAGCGATTTTCAATGATCGGGATACCATTATTCACGCACTCGTCGGTCATCTCTTTGATTTGCGACACATAGCTGCTTGTGACTCGGATCCAAA (double strand) [lapA Fis-A5/Fis-A6 fragment WT]	binds	binds
GGTACTTCCCTGCCAGAGCGGCGCTTGCTAGCCACTTCAGGCGGAACTATGTCGATGATCTCTTGACGTTTTTGACGTCAATATTCCGTCTATAACTTTTTGGAATTGCCTGACTGCCAAACTATTGACCTTATACATGCCATCCTAAACAATCGGCAATGTAATGTCACATTGATATTTGTACCTTAGCCAAGCGTTTCGGATCCT (double strand) [lapA Fis-A1/Fis-A2 fragment WT]	binds	binds
TTTGGATCCGAGTCACAAGCAGCTATGTGTCGCAAATCAAAGAGATGACCGACGAGTGCGTGAATAATGGTATCCCGATCATTGAAAATCGCTTGCGGATATTGAATGCAAGAAGGCAAGAATCCGCACTCTATACACGTAGGCCGACTAACAAGCCACAGATATGCGCCAACAAACCAGCGCCTGTTTACTGACAGTGACTAAGCTGGAACCCAAAGCCCTTGCATGAATTCAA (double strand) [Fis-A5-Fis-A6mut fragment]	binds more weakly	–
TGCTGATAAGGGTTATCACGCCCTGGTGCTGGAGCAGCTGGCCAATGTTCGCCTTGAATCGGTGTTGAGTAAACAATTCTACGTGCTTCATTTTCACCAGACTTAGCGGGGCAATGATTGTTTCATTTTTGATCCAGCCATCATCCGGCTTGTTGCAGCATAGCCTGCCACTCAGCCAAGGCATGCAAGGGCTTTGGGTTCCAGCTTAGTCACTGTCAGTAAACAGGCGCTGGATCCA (double strand) [lapA Fis-A7 fragment WT]	binds	binds
TTTGGATCCGAGTCACAAGCAGCTATGTGTCGCAAATCAAAGAGATGACCGACGAGTGCGTGAATAATGGTATCCCGATCATTGAAAATCGCTTGCGGAGGCTGACTGGGAGAAGGCAAGAATCCGCACTCTATAGATGAATTTTGACTAACAAGCCACAGATATGCGCCAACAAACCAGCGCCTGTTTACTGACAGTGACTAAGCTGGAACCCAAAGCCCTTGCATGAATTCAA (double strand) [Fis-A5mut-Fis-A6 fragment]	binds more weakly	–
TGCTGATAAGGGTTATCACGCCCTGGTGCTGGAGCAGCTGGCCAATGTTCGCCTTGAATCGGTGTTGAGTAAACAATTCTACGTGCTTCATTTTCACCAGACTTAGCGGGGCAATGATTCTGACAGGCCTGATCCAGCCATCATCCGGCTTGTTGCAGCATAGCCTGCCACTCAGCCAAGGCATGCAAGGGCTTTGGGTTCCAGCTTAGTCACTGTCAGTAAACAGGCGCTGGATCCA (double strand) [Fis-A7mut fragment]	binds more weakly	–
AGGATCCGAAACGCTTGGCTAAGGTACAAATATCAATGTGACATTACATTGCCGATTGTTTAGGATGGCATGTATAAGGTCAATAGTTTGGCAGTCAGGCAATTCCAAAAAGTTATAGACGGAATATTGACGTCACCCACGTGCCGAGATCATCGACATAGTTCCGCCTGAAGTGGCTAGCAAGCGCCGCTCTGGCAGGGAAGTACC (double strand) [Fis-A1mut-Fis-A2 fragment]	binds more weakly	–
